{
  "source": "patent US20260234232A1",
  "about": "(QUAERITE BIOPHARM RESEARCH BEIJING, published 2026)",
  "key": {"human VEGFA165 [1]": {"biological_target": "T1, human VEGFA165 (human, UniProt P15692-4 27-191)", "T1 construct": "Bought protein from two suppliers, treated as one molecule; the supplier is named under assay; also called antigen VEGFA", "T1 sequence (P15692 other isoform, or with tags, fused parts or gaps limits assumed)": "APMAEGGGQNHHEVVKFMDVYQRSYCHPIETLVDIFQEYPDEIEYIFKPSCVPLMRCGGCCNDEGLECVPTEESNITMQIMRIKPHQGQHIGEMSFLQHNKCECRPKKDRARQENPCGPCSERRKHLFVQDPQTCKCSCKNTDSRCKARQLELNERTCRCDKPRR", "assay": "competitive ELISA, coated VEGFA, competitor VEGFR2-ECD-Fc 1 nM", "description": "(§1) Antigen VEGFA was diluted with ELISA coating buffer (final concentration of […]) and added to a 96-well microplate at 100 μL/well for coating at 4° C. overnight. […] The plate was incubated at 37° C. for 1 h and washed 3 times with PBST. Subsequently, a dilution of HRP-labeled goat anti-human IgG antibody (HRP-conjugated Goat Anti-Human IgG, purchased from Proteintech, Cat. No.: A21050) was added, and the plate was further incubated at room temperature for 45 min. After the plate was washed, 100 μL of TMB (purchased from Tiangen Biotech, Cat. No.: PA107-01) was added to each well for color development at 37° C. for 15 min, followed by the addition of 50 μL of stopping solution. The absorbance at 450 nm (OD450) was measured using a microplate reader."}, "human VEGFA165 [2]": {"biological_target": "T1, human VEGFA165", "assay": "ELISA, coated human VEGFA165, anti-His detection", "description": "(§2) Antigen human VEGFA165 (label-free, purchased from Sino Biological, Cat. No.: HPLC-10008-HNAH, hereinafter referred to as VEGFA) was diluted with ELISA coating buffer to a final concentration of 0.3 μg/mL and added to a microplate at 100 μL/well for coating at 4° C. overnight. […] The solution used for antibody dilution was PBS containing 0.1% Tween-20 (pH 7.4), i.e., PBST. After being incubated at 37° C. for 1 h, the microplate was washed 3 times with PBST, and a dilution of His-Tag murine monoclonal antibody (purchased from Proteintech, Cat. No.: 66005-1-Ig) was added. The plate was further incubated at 37° C. for 1 h and washed again. Subsequently, a dilution of HRP-labeled goat anti-mouse IgG antibody (HRP-conjugated Affinipure Goat Anti-Mouse IgG (H+L), purchased from Proteintech, Cat. No.: SA00001-1) was added, and the plate was incubated at room temperature for 45 min. After the plate was washed, 100 μL of TMB (purchased from Tiangen Biotech, Cat. No.: PA107-01) was added to each well for color development at 37° C. for 15 min, followed by the addition of 50 μL of stopping solution. The absorbance at 450 nm (OD450) was measured using a microplate reader.\nThe experimental procedure was the same as that described in “2."}, "human VEGFA165 [3]": {"biological_target": "T1, human VEGFA165", "assay": "ELISA, coated human VEGFA165, anti-His detection", "description": "as §2", "remark": "listed apart in the source"}, "human VEGFA165 [4]": {"biological_target": "T1, human VEGFA165", "assay": "competitive ELISA, coated VEGFA, competitor VEGFR2-ECD-Fc 1 nM", "description": "as §1", "remark": "listed apart in the source"}, "human VEGFA165 [5]": {"biological_target": "T1, human VEGFA165", "assay": "SPR Biacore 8K, VEGFA165 on CM5, nanobody analyte, 1:1 fit", "description": "Using the Biacore 8K instrument (Cytiva), the antigen VEGFA165 (label-free, purchased from Sino Biological, Cat. No.: HPLC-10008-HNAH) as the ligand was coupled onto a CM5 chip through amino-coupling reagents (EDC and NHS), with the coupling level being about 400 RU. The mobile phase buffer was HBS-EP (0.01 M HEPES pH 7.4, 0.15 M NaCl, 3 mM EDTA, 0.005% v/v Tween 20) during the experiment. […] In the kinetic analysis, the binding time between the antigen and the antibody was 240 s, the dissociation time was 1500 s, and the flow rate was 30 μL/min. In a multi-cycle mode, the chip was regenerated with 100 mM hydrochloric acid."}, "human VEGFA165 [6]": {"biological_target": "T1, human VEGFA165", "assay": "competitive ELISA, coated VEGFA, competitor VEGFR2-ECD-Fc 1 nM", "remark": "listed apart in the source"}, "human VEGFA165 [7]": {"biological_target": "T1, human VEGFA165", "assay": "ELISA, coated human VEGFA165, anti-His detection", "description": "as §2", "remark": "listed apart in the source"}, "human VEGFA165 [8]": {"biological_target": "T1, human VEGFA165", "assay": "ELISA, coated human VEGFA165, anti-His detection", "description": "as §2", "remark": "listed apart in the source"}},
  "note": "Read-outs that look alike come from different tables or passages of the source.",
  "data": [
    {"binder": "V15 (VHH, Monovalent nanobody; tag not described here, the ELISA detects a His tag) VHH: QLQLVESGGGSVQPGGSLRLSCEVSGRTFASYTMGWFRQAPGKEREFVVAISKGGYKYDSVSLEARFTISKDNTKNTVYLQMNSLKPEDTAVYYCAGTRAYGSSRLRLAETYEYWGQGTQVTVSS", "values": [
      {"measurement": "IC50", "setting": "human VEGFA165 [1]", "result": 6.65, "unit": "nM"},
      {"measurement": "EC50", "setting": "human VEGFA165 [2]", "result": 1, "unit": "nM"}
    ]},
    {"binder": "2V1-9GS (VHH, Tandem bivalent nanobody) QLQLVESGGGSVQPGGSLRLSCEVSGRTFSSYTMGWFRQAPGKEREFVVAISKGGYKYDSVSLEARFTISKDNTKNTVYLQMNSLKPEDTAVYYCAATRAYGSSRLRLADTYEYWGQGTQVTVSSGGGGSGGGSQLQLVESGGGSVQPGGSLRLSCEVSGRTFSSYTMGWFRQAPGKEREFVVAISKGGYKYDSVSLEARFTISKDNTKNTVYLQMNSLKPEDTAVYYCAATRAYGSSRLRLADTYEYWGQGTQVTVSS", "values": [
      {"measurement": "EC50", "setting": "human VEGFA165 [3]", "result": 0.09, "unit": "nM"},
      {"measurement": "IC50", "setting": "human VEGFA165 [4]", "result": 2.97, "unit": "nM"},
      {"measurement": "EC50", "setting": "human VEGFA165 [2]", "result": 0.09, "unit": "nM"},
      {"measurement": "Kd", "setting": "human VEGFA165 [5]", "result": 0.0224, "unit": "nM"},
      {"measurement": "koff", "setting": "human VEGFA165 [5]", "result": "5.05e-05", "unit": "s⁻¹"},
      {"measurement": "kon", "setting": "human VEGFA165 [5]", "result": "2.25e+06", "unit": "M⁻¹ s⁻¹"}
    ]},
    {"binder": "2V15-9GS (VHH, Tandem bivalent nanobody) QLQLVESGGGSVQPGGSLRLSCEVSGRTFASYTMGWFRQAPGKEREFVVAISKGGYKYDSVSLEARFTISKDNTKNTVYLQMNSLKPEDTAVYYCAGTRAYGSSRLRLAETYEYWGQGTQVTVSSGGGGSGGGSQLQLVESGGGSVQPGGSLRLSCEVSGRTFASYTMGWFRQAPGKEREFVVAISKGGYKYDSVSLEARFTISKDNTKNTVYLQMNSLKPEDTAVYYCAGTRAYGSSRLRLAETYEYWGQGTQVTVSS", "values": [
      {"measurement": "IC50", "setting": "human VEGFA165 [1]", "result": 3.61, "unit": "nM"},
      {"measurement": "EC50", "setting": "human VEGFA165 [3]", "result": 0.24, "unit": "nM"},
      {"measurement": "IC50", "setting": "human VEGFA165 [4]", "result": 2.07, "unit": "nM"},
      {"measurement": "IC50", "setting": "human VEGFA165 [6]", "result": 3.13, "unit": "nM"},
      {"measurement": "Maximum inhibition rate (%)", "setting": "human VEGFA165 [6]", "result": 88.4, "unit": "%"},
      {"measurement": "EC50", "setting": "human VEGFA165 [7]", "result": 0.22, "unit": "nM"},
      {"measurement": "EC50", "setting": "human VEGFA165 [2]", "result": 0.24, "unit": "nM"},
      {"measurement": "EC50", "setting": "human VEGFA165 [8]", "result": 0.25, "unit": "nM"}
    ]}
  ]
}
